Patent US20040014191A1, “Nitroreductase enzymes” (priority 1999, published 2004)
“Also recorded” adds a separate entry of the source. Where two headings read alike, the source gives them in different places.

How the values were obtained:
[1] = system: Pae3; experiment: Kinetic parameters for Pae3; assay type: biochemical, Pseudomonas aeruginosa; conditions: menadione as substrate, NADPH as cofactor
Method: […] […] Incubation times varied according to the enzyme activity being studied.
The protein encoded by Pae3 was overexpressed in E. coli and purified by anion exchange chromatography.

[2] = system: Smu2; experiment: Kinetic parameters for Smu2; assay type: biochemical, Streptococcus mutans
Method: (§1) Quantitative assays using CB 1954 or SN 23862 as substrate were carried out at 37° C. by HPLC as previously described (2) (3). […] Incubation times varied according to the enzyme activity being studied.

[3] = system: Efa 1; experiment: Kinetic parameters for Efa 1; assay type: biochemical, Enterococcus faecalis
Source text: This gene is more highly related in sequence to ydgI compared to the other sequences used to search databases.

[4] = target: H. influenzae NfnB (Haemophilus influenzae, UniProt Q57431)
[5] = target: C. jejuni NfnB (Campylobacter jejuni, UniProt Q0P9I8)
Chain of C. jejuni NfnB (Q0P9I8 entry or part of it): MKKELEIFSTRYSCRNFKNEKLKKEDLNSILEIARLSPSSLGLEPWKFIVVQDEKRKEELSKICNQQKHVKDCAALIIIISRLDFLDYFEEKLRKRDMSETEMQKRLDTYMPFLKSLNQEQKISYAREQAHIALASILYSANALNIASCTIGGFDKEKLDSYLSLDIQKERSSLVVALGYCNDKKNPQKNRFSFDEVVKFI

[6] = target: YodC (Bacillus subtilis, UniProt P81102); experiment: Substrate and cofactor specificity for YodC
Chain of YodC (P81102 2-202): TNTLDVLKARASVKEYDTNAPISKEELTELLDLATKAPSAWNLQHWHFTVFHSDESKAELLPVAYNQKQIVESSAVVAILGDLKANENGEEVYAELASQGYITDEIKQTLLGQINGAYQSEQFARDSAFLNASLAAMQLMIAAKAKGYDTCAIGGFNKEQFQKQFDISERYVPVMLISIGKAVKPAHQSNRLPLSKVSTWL
Method: as §1
(§2) Assays were carried out spectrophotometrically at 37° C. in 10 mM Tris pH 7.5 using cytochrome c as terminal electron acceptor.

[7] = system: CC1=CC(=O)c2ccccc2C1=O; experiment: purified protein, by the assay type; conditions: other: 1 mM NADPH; pH 7.0; 37.0 °C
[8] = system: Cc1cc2nc3c(=O)[nH]c(=O)nc-3n(C[C@H](O)[C@H](O)[C@H](O)COP(=O)(O)O)c2cc1C; experiment: purified protein, by the assay type; conditions: other: flavin substrates, cofactor not given; pH 7.0; 37.0 °C
[9] = system: Cc1cc2nc3c(=O)[nH]c(=O)nc-3n(C[C@H](O)[C@H](O)[C@H](O)COP(=O)(O)OP(=O)(O)OC[C@H]3O[C@@H](n4cnc5c(N)ncnc54)[C@H](O)[C@@H]3O)c2cc1C; experiment: purified protein, by the assay type; conditions: other: flavin substrates, cofactor not given; pH 7.0; 37.0 °C
[10] = Nitroreductase enzyme assay with SN 23862 as substrate (HPLC); assay type: biochemical
[11] = Flavin reductase assay with FMN and FAD; assay type: biochemical; conditions: for Flavin reductase: Table 6
Method: as §2

[12] = system: recombinant enzymes (antigens); experiment: Western blots of antigens with rabbit antisera; assay type: binding; conditions: antisera 1/10000 or 1/20000, ECL detection
Method: Recombinant enzymes were run on SDS PAGE 4-20% gradient at 0.05, 0.5, 5, 50 and 500 ng with 500 ng of the other antigens to test cross-reactivity. The antisera were added at a dilution of 1/10 000 or 1/20 000. Secondary antibody dilutions were as shown above and detection was by ECL (Amersham).
Antigens were run on SDS PAGE 4-20% gradient at 0.05, 0.5, 5, 50 and 500 ng with 500 ng of other antigens to test cross-reactivity. The antisera were added at a dilution of 1/10000 (α-P. gingivalis YwrO, α-YwrO BAM and α-H. influenzae NfnB) or 1/20000 (α-E. coli B NfnB and α-YdgI). Secondary antibody dilutions were as shown above and detection was by ECL.

[13] = Quinone reductase assay with menadione, cytochrome c as terminal electron acceptor; assay type: biochemical; conditions: for Quinone reductase: Table 6
Method: as §2

[14] = Nitroreductase enzyme assay with CB 1954 as substrate (HPLC); assay type: biochemical
[15] = system: recombinant enzymes (antigens); experiment: Polyclonal antisera titres by ELISA; assay type: binding; conditions: rabbit antiserum; for Post-boost titre: 10 days after booster; for Pre-boost titre (50%): after 8 weeks
Method: Polyclonal antisera were raised against recombinant enzymes by immunising rabbits with […] of protein in 50% PBS:50% Freund's complete adjuvant, total volume 400 μl. Blood was collected by ear bleed after 6-8 weeks and again 10 days after a booster immunisation of protein, and titre assessed by ELISA. 96-well plates were coated with 1 μg ml^−1 of the proteins and blocked with 10% v/v foetal calf serum (FCS), antibodies were diluted in assay buffer (1% FCS) and applied in doubling dilutions across the plate from 1 in 100 to 1 in 51 200 or 1 in 150 to 1 in 76 800. A secondary antibody conjugated with HRP (dilution 1 in 10 000) was used to develop the assay with 3,3′,5,5′-tetramethylbenzidine (TMB) as substrate.
Antisera to E. coli B NfnB and six novel proteins (Haemophilus influenzae and Campylobacter jejuni NfnB homologues, YdgI and YodC of Bacillus subtilis, YwrO of B. amyloliquefaciens and Porphyromonas gingivalis YwrO homologue) have been raised in rabbits by inoculation with 100 μg of protein in PBS+ Freund's complete adjuvant. Titres were assessed by ELISA after 8 weeks, and 10 days after a booster inoculation of a further 100 μg of protein per rabbit. Pre-immune sera were also tested.
96 well plates were coated overnight at 4° C. with the antigens at 1 μg/ml. After washing and blocking antisera were added in doubling dilutions in an appropriate range across the plates. The plates were developed using goat anti-rabbit IgG peroxidase conjugate with TMB as substrate, and read at 450 nm.

[16] = assay type: biochemical; conditions: for Cofactor: Table 6
[17] = system: V79 cells; experiment: In vitro cytotoxicity test, prodrug + enzyme + cofactor, SRB assay; assay type: cell-based; conditions: for in vitro cytotoxicity of SN 23862 with enzyme: FIG. 4
Method: Microtitre plates (96 well) were obtained pre-seeded with V79 cells at 10,000 cells/ml (European Collection of Animal Cell Cultures, ECACC) in DMEM+10% foetal calf serum. All treatments were prepared on duplicate plates and transferred to the cells prior to adding enzyme (10 μl) to the appropriate wells. […] Enzymes were diluted in sterile PBS. All aqueous solutions were filter sterilised before use and operations carried out aseptically in a laminar flow hood. […] Cytotoxicity was quantified by sulphorhodamine B (SRB) assay. Briefly, the growth medium was removed and the cells fixed by addition of 100 μl per well of cold 10% TCA for 30 min. The TCA was removed and the fixed cells washed with water before adding 100 μl per well of 0.4% dye in 1% acetic acid and incubating at room temperature for 30 min. Excess dye was removed and the wells washed 4 times with 1% acetic acid. After air drying at room temperature the dye was solubilised by adding 100 μl of 10 mM Tris to each well and shaking for 15 min. […] Cytotoxicity towards treated cells was expressed as % of A492 of untreated controls and statistical analysis was performed using the Mann-Whitney test. ED50's were caculated using probit analysis.

[18] = assay type: biochemical; conditions: Table 6
[19] = substrates, NADPH preferred cofactor
[20] = listed as P. gingivalis YwrO homologue
[21] = listed as YwrO of P. gingivalis
[22] = Table 6, 37° C., read-out: Km CB 1954

CC1=CC(=O)c2ccccc2C1=O [Menadione]
Km [1]: 3.8 µM | Ksi [1]: 18.0 µM | kcat [1]: 153.4 s⁻¹ | Km [2, 19]: 2.7 µM | kcat [2, 19]: 201.0 s⁻¹ | Ksi [3]: 18.0 µM | Km ([3]; substrates, cofactor not given): 107 µM | kcat ([3]; substrates, cofactor not given): 264.8 s⁻¹ | kcat ([4]; 1 mM NADH): 24.1 | kcat ([4]; 1 mM NADPH): 177.8 | kcat ([5]; 1 mM NADPH): 66.1 s⁻¹ | kcat ([6]; cofactor NADH): 415.4 ± 14.8 s⁻¹ | Km ([6]; cofactor NADH, 37° C., 10 mM Tris pH 7.5): 1 ± 0.1 µM | Km ([6]; cofactor NADPH): 1.6 ± 0.2 µM | kcat ([6]; cofactor NADPH): 329.5 ± 18.4 s⁻¹

NADPH
Km [1]: 308 µM | kcat [1]: 33.8 s⁻¹ | Km ([2]; 100 uM menadione): 1.3 µM | kcat ([2]; 100 uM menadione): 188.7 s⁻¹ | kcat ([4]; menadione 100 μM): 154.2 | kcat ([5]; 20 μM menadione): 62.5 s⁻¹

C. jejuni NfnB (Campylobacter jejuni subsp. jejuni NCTC 11168 = ATCC 700819)
Km [7]: 1.3 ± 0.2 μM μM | Km [8]: 0.7 ± 0.2 μM μM | Km [9]: 3.3 ± 0.4 μM μM

B1: Bam YwrO: nitroreductase from B. amyloliquefaciens, SEQ ID NO: 2 (protein, listed as Bacillus amyloliquefaciens)
chain: VKVLVLAVHPDMENSAVNKAWAEELKKHDELTVRELYKEYPDGQIDAEKERQLCEQYDRIVFQFPLYWYSAPPLLKTWMDHVLSYGWAYGSKGKALHGKELMLAVSVGAGEDAYQAGGSNHFTLSELLRPFQAMANFTGMTYLPAFALYGVNGADATDIHDNAKRLAAYIKKSF
SN23862 Km ([10]; Table 1): inactive | SN23862 kcat ([10]; Table 1): inactive | activity with SN23862 ([10]; listed as YwrO BAM): not SN23862 | activity with SN23862 ([10]; listed as YwrO of B. amyloliquefaciens): inactive with this substrate | flavin reductase activity [11]: has azoreductase and flavin reductase activity | Km ([11]; read-out: Km for FAD): 209 µM | Km ([11]; read-out: Km for FMN): 53 µM | amount of antigen detected by its antiserum in Western blot [12]: 500 ng | Km ([13]; read-out: Km for menadione): 3.4 µM | kcat for CB1954 (text) [14]: 8.2 s⁻¹ | reduction of CB1954: activity and product formed [14]: 4HX product only | CB1954 kcat ([14]; Table 1): 2 s⁻¹ | CB 1954 product ([14]; Table 1, purified enzymes): 4HX | Km ([14]; read-out: Km for CB1954): 617 µM | Post-boost titre [15]: 2800 | Pre-boost titre (50%) [15]: 1200 | Km ([16]; read-out: Km for NADPH as cofactor): 40 µM

B2: P. gingivalis YwrO: nitroreductase from Porphyromonas gingivalis, SEQ ID NO: 25 (protein, listed as Porphyromonas gingivalis)
chain: MKKTLVIVVHPDLTKSVINKAWAKAIEGAATIHHLYEQYPNGQIDLAHEQALLEAHDRIVFQFPLYWYAAPYLLKKWMDEVFTEGWAYGAGGDKMEGKEICAAVSCGSPKSAFAEGAQQCHTLRSYLNVFDGIAAFLRARFTGYHACYDSYNPRLPEMLPANCEAYLRFIKGE
SN 23862 acitvity ([10]; Table 6): Yes | activity with SN23862 [10, 20]: active with SN23862; also recorded: too slow for kinetic parameters to be calculated accurately | Flavin reductase [11]: No | flavin reductase activity [11, 20]: inactive with menadione or flavins | flavin reductase activity [11, 21]: little activity with menadione or flavins | in vitro cytotoxicity of SN 23862 with enzyme [17]: lack of activity | amount of antigen detected by its antiserum in Western blot [12]: 500 ng | Quinone reductase [13]: No | activity with menadione / quinone reductase [13, 20]: inactive with menadione or flavins | activity with menadione / quinone reductase [13, 21]: little activity with menadione or flavins | kcat (CB 1954) [14]: 3.2 s⁻¹ | kcat for CB1954 (text) [14]: 3.2 s⁻¹ | reduction of CB1954: activity and product formed [14]: only the 4HX reduction product | Km [14, 22]: 1200 µM | CB 1954 product ([14]; Table 6, recombinant enzymes): 4HX | Km ([14]; read-out: Km for CB1954): 1200 µM | Post-boost titre [15]: 3100 | Pre-boost titre (50%) [15]: 1000 | Cofactor [16]: NADH | Azo-Reductase [18]: Yes

B3: H. influenzae NfnB: nitroreductase from H. influenzae, SEQ ID NO: 17 (protein, listed as Haemophilus influenzae)
chain: MTQLTREQVLELFHQRSSTRYYDPTKKISDEDFECILECGRLSPSSVGSEPWKFLVIQNKTLREKMKPFSWGMINQLDNCSHLVVILAKKNARYDSPFFVDVMARKGLNAEQQQAALTKYKALQEEDMKLLENDRTLFDWCSKQTYIALANMLTGASALGIDSCPIEGFHYDKMNECLAEEGLFDPQEYAVSVAATFGYRSRDIAKKSRKGLDEVVKWVG
activity with SN23862 [10]: weak activity with SN23862 | SN 23862 acitvity, second number of the cell (kcat) ([10]; Table 6, HPLC assay): 39.8 | Km ([10]; Table 6, HPLC assay, read-out: SN 23862 acitvity, first number of the cell (Km)): 3360 µM | Flavin reductase [11]: Weak | flavin reductase activity ([11]; listed as H. influenzae NfnB homologue): lacks activity with the quinone menadione and flavins FMN or FAD; also recorded: little activity | in vitro cytotoxicity of CB 1954 with enzyme ([17]; FIG. 3): most potent | in vitro cytotoxicity of SN 23862 with enzyme [17]: most potent | activity with menadione / quinone reductase [13]: lacks activity with the quinone menadione | Quinone reductase [13]: Yes | reduction of CB1954: activity and product formed [14]: form the 4HX reduction product of CB1954 | kcat (CB 1954) ([14]; Table 6, 37° C.): 56.2 s⁻¹ | Km [14, 22]: 690 µM | CB 1954 product ([14]; Table 6, recombinant enzymes): 4HX | Post-boost titre [15]: 760 | Pre-boost titre (50%) [15]: 180 | Cofactor [16]: NADPH | Azo-Reductase [18]: No
